To fix the notation:
B1: MAb 2AF11 (antibody, V domains shown)
VH: QVTLKESGPGILQPSQTLSLTCSFSGFSLSTSGMSVGWIRQPSGKGLEWLAHIWWNDDMYYNPALESRLTISKDTSNNQVFLKIASVVTADTATYYCARIALTGPYWYFDVWGAGTTVTVSS
VL: DIVMTQTPASLSASVGETVTITCRASENIYSYLAWYQQKQGKSPQLLVNNAKTLAEGVPSRFSGSGSGTQFSLKINSLQPEDCGNYYCQHHYGTPLTFGAGTKLELK
B2: MAb 2AG9 (antibody, V domains shown)
VH: ELARPGASVKLSCKASGYTFTNYYMQWIKQRPGQGLEWIGAVYPGDGDTRYTQKFKGKASLTADKSSTTAYMQLSSLASEDSAVYYCTRGDYEGTWFTYWGQGTLVTVSA
VL: DIVMTQTTAIMSASPGEKVTMTCSASSSVSYMHWYQQKSGTSPKRWMYDTSKLASGVPGRFSGSGSGTTYSLTISTMEAEDAATYYCQQWSSNPPTFGGGTKLEIK
B3: MAb 2BB7 (antibody, V domains shown)
VH: EVQLQQSGPDLVKPGASMKISCKASGYSFTAYTMNWVKQSHGKNLEWIGLISPYNGGTSYNQKFKGKATLTVDKSSSTAYMELLSLTSEDSAVYYCARQIGPYFDHWGQGTTLTVSS
VL: IVMTQTTPSSMYASLGERVTITCKASQDIKSSFSWFQQKPGKSPKTLIYRASRLVDGVPSRFSGSGSGQDSSLTISSLEYEDMGIYYCLQCDEFPYTFGGGTKLEIK
B4: MAb 2BB8 (antibody, V domains shown)
VH: QAYLQQSGAELVRSGASLKMSCKASGYTFTSYNLHWVKQTPGQGLEWIGYIFPGNGGTAYNEKFKGKATLTADTSSSTAYMQISSLTSEDSAVYFCARGGPYYALDYWGQGTSVTVSS
VL: DIQMTQSPASLSASVGETVTITCRTSGNIHTYLAWYQHKQGKSPQLLVYYAKTLADGVPSRFSGSGSGTQYSLKINSLQPEDFGSYYCQHFWSNPRTFGGGTKLEIK
B5: MAb 2BA2 (antibody, V domains shown)
VH: VQLQESGPGLVKPSQPLSLTCSVTGYSITSAYYWNWIRQFPGNKLEWMGYITYDGTNNYNPSLKNRISITRDTSKNQFFLKLNSVTTEDTASYYCARDVATVGAMDYWGQGTSVTVSS
VL: SIVMTQTPKFLLVSAGDRVTITCKASQSVSNDVAWYQQKPGQSPKLLIYFASNRYTGVPDRFTGSGYGTDFTFTISTVLAEDLALYFCQQDYSSPRTFGGGTKLEVK
B6: MAb 2BB5 (antibody, V domains shown)
VH: EVQLEESGGGLVQPGGSMKLSCVASGFTFSNYWMNWVRQSPEKGLEWVAEVRLNSNNYATHYAESVKGRFTISRDDSKSSVYLQMSNLRSEDTGIYYCSTDYYGYAMDYWGQGTSVTVSS
VL: DIVMTQTPSIMSASPGEKVTITCSASSNVNYMHWFQQKPGTSPKLWIYSTSNLASGVPARFSGSGSGTSYSLTISRMEAEDAATYYCQQRSNYPPTFGAGTKLELK
B7: MAb 2AG8 (antibody, V domains shown)
VH: VKLEESGAELVRSGASLKMSCKASGYTFTSYNLHWVKQTPGQGLEWIGYIFPGNGGTAYNEKFKGKATLTADTSSSTAYMQISSLTSEDSAVYFCARGGPYYALDYWGQGTSVTVSS
VL: DIVMTQSPASLSASVGETVTITCRTSGNIHTYLAWYQHKQGKSPQLLVYYAKTLADGVPSRFSGSGSGTQYSLKINSLQPEDFGSYYCQHFWSNPRTFGGGTKLEIKR
B8: MAb 2BB6 (antibody, V domains shown)
VH: EVQLEESGPDLVKPSQSLSLTCTVTGFSITSGYSWHWIRQFPGNKLEWMGYIHFSGSTNYNPSLKSRISITRDTSKNQFFLQLSSVTTDDTGTYYCARDLTGIDSWGQGTTLTVSS
VL: DIVMTQTPAIMSASPGEKVTISCSASSSVSYMYWFQQKPGSSPKPWIYRTSNLASGVPARFSGSGSGTSYSVTISSMEAEDAATYYCQQYHSYPLTFGAGTKLELK

The first assay concerns the target SFTSV antigen (SFTSV-infected Vero cells). The assay can be described thus: IFA on acetone-fixed SFTSV-infected Vero cells, MAb in doubling dilutions.
Take B1: the IFA endpoint titer was 1 µg/mL.

A further assay concerns the target Heartland virus (HRTV) nucleocapsid (N) protein (Heartland virus (HRTV)). The assay can be described thus: ELISA, purified HRTV coated on the plate, MAb titrated.
On to B2, for which the ELISA endpoint titer worked out at 1.53 ng/mL.

As to B3, the ELISA endpoint titer came out at 24.4 ng/mL.

Turning to B4, the ELISA endpoint titer stood at 0.61 ng/mL.

In the case of B5, the ELISA endpoint titer came out at 39.1 ng/mL.

With B6, the ELISA endpoint titer was determined as 0.156 ng/mL.

As for B7, the ELISA endpoint titer was 0.381 ng/mL.

The next assay has the same target.
Test: not given
B2 registered an ELISA endpoint of 1.53 ng/mL.

B3 came in with an ELISA endpoint of 24.4 ng/mL.

As to B4, the ELISA endpoint is 0.61 ng/mL.

With B5, the ELISA endpoint came out at 39.1 ng/mL.

B6 yielded an ELISA endpoint of 0.156 ng/mL.

B7: the ELISA endpoint is 0.381 ng/mL.

Consider B1, for which the ELISA endpoint amounted to 10000 ng/mL.

Take B8: the ELISA endpoint stood at 10000 ng/mL.
